Results taken from patent US20260166131A1, “METHOD FOR PROMOTING PATHOLOGICAL TDP-43 PROTEIN DEGRADATION, AND DRUG” (TALENGEN INTERNATIONAL LIMITED, priority 2022, published 2026).
Entries after “also recorded” stand apart in the source; their conditions may differ.

Experiments:
NSC34 cells = assay: Human plasminogen level in cytoplasm and nucleus of okadaic acid-treated NSC34 cells (ELISA); conditions: plasminogen 0.5 mg/mL 24 hours, vs vehicle group
Protocol: The cells were placed in a carbon dioxide incubator for culture at 37.0° C. and 5% CO2. […] After adding plasminogen for 24 hours, the cells were harvested. […] The supernatant is the extracted cytoplasmic protein, and the supernatant is immediately sucked up into a pre-cooled sample tube for later use. The precipitate is the cell nucleus, and the remaining supernatant was completely aspirated (to avoid contamination by cytoplasmic proteins), then adding 50-100 μL of nuclear protein extraction reagent. The precipitate is completely dispersed by pipette blow or high-speed vortex for 15 seconds (can be extended appropriately), then ice-bathing for 10 minutes, vortexing vigorously at maximum speed for 10 seconds and centrifuging at 12,000-16,000 g for 10 minutes at 4° C. The supernatant was immediately sucked up by pipette into a pre-cooled sample tube; this is the extracted nuclear protein.

[1] = Plasma plasminogen level after tail vein injection in SOD1-G93A mice (ELISA); format: in vivo, mouse
Protocol: Twenty-seven 10-15 week-age B6.Cg-Tg (SOD1-G93A) 1Gur/J (SOD1-G93A) mice (pedigree number: 004435) (referred to as SOD1-G93A mice) (breeding mice were purchased from Jackson Laboratory, USA) were randomly divided into three groups: three in the vehicle control group, 12 in the 6 mg/kg plasminogen group, and 12 in the 50 mg/kg plasminogen group. The mice in the vehicle control group were injected with vehicle at 5 ml/kg by tail vein, the mice in the 6 mg/kg plasminogen group were injected with plasminogen (1.2 mg/ml) at 6 mg/kg body weight by tail vein, and the mice in the 50 mg/kg plasminogen group were injected with plasminogen (10 mg/ml) at 6 mg/kg body weight by tail vein. The mice in the vehicle control group were killed 2 hours after administration, and their blood was collected. Three mice in the 6 mg/kg plasminogen group and three mice in the 50 mg/kg plasminogen group were killed at 2, 6, 12 and 24 hours after administration, and their blood was collected. After the blood was centrifuged (3500 rpm, 10 min, 4° C.), the supernatant was taken to test according to the instructions of Human Plasminogen ELISA Kit (manufacturer: AssayMax, catalog number: EP1200-1). The concentration of each sample was calibrated by using human plasminogen working standard as the internal standard. The calibrated concentration was divided by the total protein concentration to calculate the amount of plasminogen per unit of total protein in each sample and perform statistical analysis.

[2] = Blood plasminogen level in MPTP Parkinson's model mice (ELISA); format: in vivo, mouse; conditions: 50 mg/kg tail vein
Protocol: Eighteen 6-week-age male C57BL/6J mice were injected intraperitoneally with 1-methyl-4-phenyl-1,2,3,6-tetrahydropyridine (MPTP) solution at a dose of 35 mg/kg/mouse for 5 consecutive days to establish a Parkinson's model [7]. […] The mice were randomly divided into two groups according to their body weight: 6 mice in vehicle group, 12 mice in plasminogen group; and administration was begun to record as day 1. The mice in the plasminogen group were injected with 50 mg/kg body weight of plasminogen solution by tail vein, and the mice in the vehicle group were injected with 5 mL/kg body weight of vehicle solution (10 mM citric acid-sodium citrate solution, pH 7.4) by tail vein. Three mice in the vehicle group were killed respectively 2 and 24 hours after administration, and their blood was collected. Three mice in the plasminogen group were killed 2, 6, 12, and 24 hours after administration, and their blood was collected. After the blood was centrifuged (3500 rpm, 10 min, 4° C.), the supernatant was taken to detect according to the instructions of Human Plasminogen ELISA Kit (manufacturer: AssayMax, catalog number: EP1200-1). The concentration of each sample was calibrated by using human plasminogen working standard as the internal standard. […]

[3] = Brain tissue plasminogen level in MPTP Parkinson's model mice (ELISA); format: in vivo, mouse; conditions: 50 mg/kg tail vein
[4] = Plasma plasminogen level after tail vein injection in FAD (Alzheimer's model) mice (ELISA); format: in vivo, mouse
Protocol: Twenty-seven 16-week-age B6SJL-Tg (APPSwFlLon, PSEN1*M146L* L286V) 6799Vas Mmjax (Stock Number: 034840) (FAD mice for short) (breeding mice were purchased from Jackson Laboratory, USA) were randomly divided into three groups: three mice in vehicle control group, 12 mice in 6 mg/kg plasminogen group, and 12 mice in 50 mg/kg plasminogen group. The mice in the vehicle control group were injected with vehicle at 5 ml/kg by tail vein, the mice in the 6 mg/kg plasminogen group were injected with plasminogen (1.2 mg/ml) at 6 mg/kg body weight by tail vein, and the mice in the 50 mg/kg plasminogen group were injected with plasminogen (10 mg/ml) at 6 mg/kg body weight by tail vein. The mice in the vehicle control group were killed 2 hours after administration, and their blood was collected. Three mice in the 6 mg/kg plasminogen group and three mice in the 50 mg/kg plasminogen group were killed 2, 6, 12 and 24 hours after administration, and their blood was collected. After the blood was centrifuged (3500 rpm, 10 min, 4° C.), the supernatant was taken to detect according to the instructions of Human Plasminogen ELISA Kit (manufacturer: AssayMax, catalog number: EP1200-1). The concentration of each sample was calibrated by using human plasminogen working standard as the internal standard. The calibrated concentration was divided by the total protein concentration to calculate the amount of plasminogen per unit of total protein in each sample and perform statistical analysis.

[5] = Spinal cord tissue plasminogen level after tail vein injection in FAD mice (ELISA)
Protocol: Twenty-seven 16-week-age B6SJL-Tg (APPSwFlLon, PSEN1*M146L* L286V) 6799Vas Mmjax (Stock Number: 034840) (FAD mice for short) (breeding mice were purchased from Jackson Laboratory, USA) were randomly divided into three groups: three mice in vehicle control group, 12 mice in 6 mg/kg plasminogen group, and 12 mice in 50 mg/kg plasminogen group. The mice in the vehicle control group were injected with vehicle at 5 ml/kg by tail vein, the mice in the 6 mg/kg plasminogen group were injected with plasminogen (1.2 mg/ml) at 6 mg/kg body weight by tail vein, and the mice in the 50 mg/kg plasminogen group were injected with plasminogen (10 mg/ml) at 6 mg/kg body weight by tail vein. […] Three mice in the 6 mg/kg plasminogen group and three mice in the 50 mg/kg plasminogen group were killed 2, 6, 12 and 24 hours after administration, and their blood was collected.
Spinal cord tissue was obtained from the mice sacrificed in Example 21, homogenizing and detecting according to the instructions of Human Plasminogen ELISA Kit (manufacturer: AssayMax, catalog number: EP1200-1). The concentration of each sample was calibrated by using human plasminogen working standard as the internal standard. The calibrated concentration was divided by the total protein concentration to calculate the amount of plasminogen per unit of total protein in each sample and perform statistical analysis.

TDP-43 [6] = biological target: T1, TDP-43 (Mus musculus, UniProt Q921F2); assay: Immunofluorescence co-localization staining of plasminogen and TDP-43 in spinal cord tissue of SOD1-G93A mice; format: in vivo; set-up: from tissue; host or cells: mouse spinal cord, gluteal muscle, brain, kidney cell nuclei; conditions: 1 mg/mouse tail vein every day
T1 sequence (Q921F2 whole entry): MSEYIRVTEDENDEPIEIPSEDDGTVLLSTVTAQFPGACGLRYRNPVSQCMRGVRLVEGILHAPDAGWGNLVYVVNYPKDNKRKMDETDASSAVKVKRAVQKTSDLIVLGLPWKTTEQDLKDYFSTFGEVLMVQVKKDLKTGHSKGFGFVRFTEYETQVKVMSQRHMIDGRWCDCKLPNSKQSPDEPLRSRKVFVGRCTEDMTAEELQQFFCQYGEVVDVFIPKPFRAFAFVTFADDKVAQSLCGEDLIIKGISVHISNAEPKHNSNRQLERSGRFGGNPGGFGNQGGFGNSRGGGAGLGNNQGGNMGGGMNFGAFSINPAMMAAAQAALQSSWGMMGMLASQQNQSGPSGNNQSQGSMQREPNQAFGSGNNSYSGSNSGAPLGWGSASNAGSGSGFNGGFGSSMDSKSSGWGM
Protocol: Five wild-type male mice and nine male SOD1-G93A mice of similar week-age were selected. Wild-type mice served as the blank control group, and SOD1-G93A mice were observed and recorded from the time of hind leg tremor when they became ill at week 14, and the onset time of each mouse was recorded. Administering to mice 14 days after the onset of the disease. All mice were randomly divided into a vehicle group and a plasminogen group according to the onset of the disease: 5 mice in the vehicle group, which were injected with 0.1 ml of vehicle (sodium citrate buffer)/mouse by tail vein every day; 4 mice in the plasminogen group, which were injected with 1 mg of plasminogen/0.1 ml of vehicle/mouse by tail vein every day. The vehicle and plasminogen were administered continuously under SPF environment, and the samples were collected at the near-death stage. The longest administration was 61 days. The spinal cord tissue collected was fixed in formalin fixative solution. The fixed tissues were dehydrated with gradient alcohol and transparentized with xylene before being embedded in paraffin. The thickness of tissue sections was 3 μm, and the sections were dewaxed and rehydrated and then washed once. The sections were immersed in antigen retrieval working solution (0.01 M sodium citrate buffer) to perform microwave retrieval: preheating for 5 minutes, high heating for 2 minutes, and low heating for 15 minutes. The tissue was circled with a PAP pen, then incubating in 3% hydrogen peroxide for 15 minutes, and washing twice with 0.01 M PBS for 5 minutes each time, blocking with 5% normal goat serum (Vector laboratories, Inc., USA) for 30 minutes. After the time for blocking is up, the goat serum is discarded, adding anti-plasminogen antibody (self-produced), then incubating at 4° C. overnight, and washing twice with 0.01M PBS for 5 minutes each time. The goat anti-rabbit IgG (HRP) antibody (Abcam) secondary antibody was added to incubate at room temperature for 1 hour, then washing twice with 0.01M PBS for 5 minutes each time. The green fluorescence color development of the corresponding anti-plasminogen secondary antibody was performed according to the instructions of the XTSA520 IHC kit (Alpha X Biotech, AXT6202500), washing 3 times with PBS for 5 minutes each time. The above antigen retrieval and blocking procedures were repeated, and then anti-TDP-43 antibody (Proteintech, 12892-1-AP) staining was performed, then incubating at 37° C. for 1 hour, washing 3 times with PBS for 5 minutes each time. […] The red fluorescence color development of the corresponding anti-TDP-43 secondary antibody was performed according to the instructions of the XTSA620 IHC kit (Alpha X Biotech, AXT6502500), washing 3 times with PBS for 5 minutes each time. […]

TDP-43 [7] = biological target: T1, TDP-43; assay: TDP-43 in nuclei of renal cells of SOD1-G93A mice (Western blot); format: in vivo; set-up: from tissue; host or cells: mouse spinal cord, gluteal muscle, brain, kidney cell nuclei; conditions: 50 mg/kg tail vein every day, 7 days, vs vehicle group, P<0.05
Protocol: SOD1-G93A mice (Jackson Laboratory, Stock Number: 004435) and C57BL/6J mice aged 9-10 weeks were selected. SOD1-G93A mice were randomly divided into two groups, vehicle group and plasminogen group, and C57BL/6J mice were used as normal control group, with 3 mice in each group. […] No treatment was administered to the normal control mice. The mice were killed after 7 days, and kidney tissues were obtained. The sampled kidney tissue was placed in pre-cooled RPMI-1640 (Sigma-Aldrich) culture medium on ice. After rinsing with PBS, the kidney tissue was cut into small pieces and then incubated with 0.25% trypsin for digestion at 37° C. for 10 min, shaking every 2 min. Digestion was terminated by adding DMEM medium containing 10% fetal newborn calf serum. After centrifugation (1500 rpm, 5 minutes), the supernatant was removed to obtain a single cell pellet. […] The precipitate is the cell nucleus. […] The extracted nuclear protein was tested by western blot for TDP-43.

[8] = tail vein injection of 50 mg/kg

B1: plasminogen: human plasminogen purified from human donor plasma, in which human Lys-plasminogen and Glu-plasminogen are >98% (protein)
chain: KVYLSECKTGNGKNYRGTMSKTKNGITCQKWSSTSPHRPRFSPATHPSEGLEENYCRNPDNDPQGPWCYTTDPEKRYDYCDILECEEECMHCSGENYDGKISKTMSGLECQAWDSQSPHAHGYIPSKFPNKNLKKNYCRNPDRELRPWCFTTDPNKRWELCDIPRCTTPPPSSGPTYQCLKGTGENYRGNVAVTVSGHTCQHWSAQTPHTHNRTPENFPCKNLDENYCRNPDGKRAPWCHTTNSQVRWEYCKIPSCDSSPVSTEQLAPTAPPELTPVVQDCYHGDGQSYRGTSSTTTTGKKCQSWSSMTPHRHQKTPENYPNAGLTMNYCRNPDADKGPWCFTTDPSVRWEYCNLKKCSGTEASVVAPPPVVLLPDVETPSEEDCMFGNGKGYRGKRATTVTGTPCQDWAAQEPHRHSIFTPETNPRAGLEKNYCRNPDGDVGGPWCYTTNPRKLYDYCDVPQCAAPSFDCGKPQVEPKKCPGRVVGGCVAHPHSWPWQVSLRTRFGMHFCGGTLISPEWVLTAAHCLEKSPRPSSYKVILGAHQEVNLEPHVQEIEVSRLFLEPTRKDIALLKLSSPAVITDKVIPACLPSPNYVVADRTECFITGWGETQGTFGAGLLKEAQLPVIENKVCNRYEFLNGRVQSTELCAGHLAGGTDSCQGDSGGPLVCFEKDKYILQGVTSWGLGCARPNKPGVYVRVSRFVTWIEGVMRNN
**Q.** Which “level of human plasminogen in the cytoplasm” value (NSC34 cells) does the source give for B1 here?
**A.** significantly higher

**Q.** What about the “level of human plasminogen in the nucleus” value (NSC34 cells) of the same molecule?
**A.** significantly higher

**Q.** And the “plasma plasminogen level, 50 mg/kg group compared with 6 mg/kg group” value ([1]; tail vein)?
**A.** significantly higher

**Q.** What about the “time within which plasminogen is almost completely metabolized (plasma)” value ([1]; tail vein 50 mg/kg and 6 mg/kg, level decreases from 2 hours) of the same molecule?
**A.** 12 to 24 h

**Q.** And the plasma plasminogen level ([1]; tail vein injection of 6 mg/kg)?
**A.** increase significantly

**Q.** And the plasma plasminogen level [1, 8]?
**A.** increase significantly

**Q.** And the “time within which plasminogen is almost completely metabolized (blood)” value [2]?
**A.** 12 to 24 h

**Q.** And the “plasminogen level in the blood” value ([2]; vs vehicle group)?
**A.** significantly higher

**Q.** And the “time within which plasminogen is almost completely metabolized (brain tissue)” value [3]?
**A.** 12 to 24 h

**Q.** What about the “plasminogen level in the brain tissue” value ([3]; vs vehicle group) of the same molecule?
**A.** significantly higher

**Q.** And the “plasma plasminogen level, 50 mg/kg group compared with 6 mg/kg group” value ([4]; tail vein)?
**A.** significantly higher

**Q.** And the “time within which plasminogen is almost completely metabolized (plasma)” value ([4]; tail vein 50 mg/kg and 6 mg/kg)?
**A.** 12 to 24 h

**Q.** What about the plasma plasminogen level ([4]; tail vein injection of 6 mg/kg) of the same molecule?
**A.** increase significantly

**Q.** And the plasma plasminogen level [4, 8]?
**A.** increase significantly

**Q.** And the “ratio of plasminogen in spinal cord tissue to plasminogen in blood” value (“ratio of plasminogen” below) ([5]; 6 mg/kg plasminogen group, 2 hours)?
**A.** 0.93%

**Q.** And the “ratio of plasminogen” value ([5]; 6 mg/kg plasminogen group, 6 hours)?
**A.** 1.62%

**Q.** And the “ratio of plasminogen” value ([5]; 50 mg/kg plasminogen group, 2 hours)?
**A.** 0.33%

**Q.** What about the “ratio of plasminogen” value ([5]; 50 mg/kg plasminogen group, 6 hours) of the same molecule?
**A.** 0.40%

**Q.** And the “ratio of plasminogen” value ([5]; 50 mg/kg plasminogen group, 12 hours)?
**A.** 1.56%

**Q.** What about the “plasminogen level in spinal cord tissue, 50 mg/kg group compared with 6 mg/kg group” value ([5]; tail vein) of the same molecule?
**A.** significantly higher

**Q.** And the “time within which plasminogen is almost completely metabolized (spinal cord tissue)” value ([5]; tail vein 50 mg/kg and 6 mg/kg)?
**A.** 12 to 24 h

**Q.** What about the “plasminogen level in spinal cord tissue” value ([5]; tail vein injection of 6 mg/kg, 6 mg/kg) of the same molecule?
**A.** increases significantly

**Q.** And the “plasminogen level in spinal cord tissue” value ([5]; tail vein injection of 50 mg/kg, 50 mg/kg)?
**A.** increases significantly

**Q.** And the “subcellular presence of plasminogen in spinal cord tissue” value (TDP-43 [6])?
**A.** present in the cytoplasm (as indicated by A) and in the nucleus; also recorded: present in the cytoplasm (as indicated by Δ) and in the nucleus

**Q.** What about the “level of TDP-43 in spinal cord tissue” value (TDP-43 [6]; immunofluorescence, vs vehicle group) of the same molecule?
**A.** lower than that in the vehicle group; also recorded: lower than that of the vehicle group

**Q.** And the “positive staining of plasminogen in spinal cord tissue” value (TDP-43 [6]; up to 61 days, vs vehicle group)?
**A.** significantly more

**Q.** And the “co-localization of plasminogen and TDP-43 in spinal cord tissue” value (TDP-43 [6]; vs vehicle group)?
**A.** more than that in the vehicle group

**Q.** What about the “level of TDP-43 in renal cell nuclei” value (TDP-43 [7]) of the same molecule?
**A.** significantly lower
